Results from paper PMC3071809, “Recombinant Complement Receptor 2 Radiolabeled with [^99mTc(CO)3]^+ : A Potential New Radiopharmaceutical for Imaging Activated Complement” (PLoS ONE, 2011).

Legend:
[1] = molecular target: T1, human C3d protein (Merck) (human, UniProt P01024 1002-1303); assay: ELISA; C3d coated at two fold concentrations from 1.5 to 1500 nM/well in PBS pH 7.4; rCR2 or C2A at a fixed 1.5 µM in 0.05% BSA-PBS pH 7.4, 1 h, room temperature; detected with anti-His antibody; settings: both partners purified
T1 construct: C3d fragment of complement C3, human; also called C3d antigen; immobilized C3d; source: bought: Merck, Darmstadt, Germany
T1 sequence (P01024 1002-1303): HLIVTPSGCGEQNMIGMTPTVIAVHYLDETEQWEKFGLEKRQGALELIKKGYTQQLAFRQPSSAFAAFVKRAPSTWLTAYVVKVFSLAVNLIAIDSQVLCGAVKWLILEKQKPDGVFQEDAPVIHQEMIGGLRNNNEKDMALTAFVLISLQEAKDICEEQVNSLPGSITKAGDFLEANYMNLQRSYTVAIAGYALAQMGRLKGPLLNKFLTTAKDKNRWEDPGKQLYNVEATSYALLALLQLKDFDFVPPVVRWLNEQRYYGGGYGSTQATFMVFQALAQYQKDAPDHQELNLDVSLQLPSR

[2] = molecular target: C3d construct with a free exposed thiol (Cys17, corresponding to Cys1010 of full length C3) (human); assay: SPR; Biacore T100, 25°C; C3d immobilised on a CM5 chip by thiol coupling of the free Cys17; rCR2 as analyte; 0.01 M HEPES pH 7.4, 0.15 M NaCl, 3 mM EDTA, 0.005% Tween 20; equilibrium analysis, Langmuir isotherm
[3] = molecular target: T1, human C3d protein (Merck); assay: radioligand binding; radioactive ELISA: C3d coated on 12 well strips at increasing two fold concentrations, ^99mTc-rCR2 added, wells gamma counted; one site specific binding model Y = Bmax*X/(Kd+X); settings: both partners purified

EC50 [1] [nM] | Kd [2] [nM] | stoichiometry N [2] | Kd [3] [nM] | Binder
~48.5 | 570 | 1 |  | recombinant Complement Receptor 2 (rCR2), Short Consensus Repeats 1 and 2 of human CR2 with the C-terminal sequence … (domain or fragment, UniProt P20023 21-154, looked up, complement receptor type 2 (CR2, CD21), human, residues 21-154: SCR1, SCR2 and the SCR2 to SCR3 linker VFPLEC; 15.5 kDa; cloned in pET-24a (NdeI/EcoRI); also called recombinant CR2; SCR1/2 fragment; not shown: His6, C-terminal, kept) ISCGSPPPILNGRISYYSTPIAVGTVIRYSCSGTFRLIGEKSLLCITKDKVDGTWDKPAPKCEYFNKYSSCPEPIVPGGYKIRGSTPYRHGDSVTFACKTNFSMNGNKSVWCQANNMWGPTRLPTCVSVFPLEC
 |  |  | 25.5 | ^99mTc-rCR2 (rCR2 radiolabeled with [^99mTc(CO)3]^+ on the His-tag) (domain or fragment, human, UniProt P20023 21-154, looked up, [^99mTc(CO)3]^+ on the C-terminal His-tag, complement receptor type 2 (CR2), human, residues 21-154, as m1; m1 with the radiolabel; also called rCR2-Tc^99m; rCR2-[^99mTc(CO)3]; source: labeled with [^99mTc(CO)3(OH2)3]^+ at 37°C; not shown: His6, C-terminal, kept) ISCGSPPPILNGRISYYSTPIAVGTVIRYSCSGTFRLIGEKSLLCITKDKVDGTWDKPAPKCEYFNKYSSCPEPIVPGGYKIRGSTPYRHGDSVTFACKTNFSMNGNKSVWCQANNMWGPTRLPTCVSVFPLEC
